Reference: publication PMC6197226, “ZZ-dependent regulation of p62/SQSTM1 in autophagy” (Nature Communications, 2018)

Target: T1, p62 ZZ domain (aa 115-190) (human, UniProt Q13501 115-190)
T1 construct: p62/SQSTM1 ZZ domain, human, aa 115-190; uniformly 15N-labeled for NMR; unlabeled for MST; also called p62_(ZZ (115-190)); source: E. coli BL21 (DE3) RIL, purified (glutathione Sepharose, size exclusion)
Assay: MST; displacement assay: unlabeled peptide added to a preformed complex of 40 uM ZZ (aa 115-190) and 80 nM FAM-labeled peptide; Ki from IC50, called Kd in the text; 10 mM HEPES pH 7.4, 150 mM NaCl, 1 mM TCEP; triplicates
Conditions: both partners purified

B1: K100EKKECRRDHR110 (p62_(100-110)) peptide (peptide)
peptide: KEKKECRRDHR
notes: p62/SQSTM1 regulatory linker between PB1 and ZZ, aa 100-110; also called RL peptide; RL; source: synthetic peptide (SynPeptide or KE BioChem)
  Kd: 320 µM
